Assay results published in US20250388663A1 (INSTITUT NATIONAL DE LA SANT ET DE LA RECHERCHE M DICALE, published 2025).
Each block holds one molecule with its values, some of them ahead of it.

Key:
[1] = molecular target: human serum albumin (human) (UniProt P02768); assay: SPR (openSPR), control channel blocked with the non-relevant sdAb and ethanolamine, albumin perfused; settings: scale: % of binding to OptiAlb-12-coated channels
mouse serum albumin [2] = molecular target: T1, mouse serum albumin (mouse, UniProt P07724 25-608); assay: as above; settings: scale: % of binding to OptiAlb-12-coated channels
T1 construct: also called MSA; murine serum albumin
T1 sequence (P07724 25-608 limits assumed): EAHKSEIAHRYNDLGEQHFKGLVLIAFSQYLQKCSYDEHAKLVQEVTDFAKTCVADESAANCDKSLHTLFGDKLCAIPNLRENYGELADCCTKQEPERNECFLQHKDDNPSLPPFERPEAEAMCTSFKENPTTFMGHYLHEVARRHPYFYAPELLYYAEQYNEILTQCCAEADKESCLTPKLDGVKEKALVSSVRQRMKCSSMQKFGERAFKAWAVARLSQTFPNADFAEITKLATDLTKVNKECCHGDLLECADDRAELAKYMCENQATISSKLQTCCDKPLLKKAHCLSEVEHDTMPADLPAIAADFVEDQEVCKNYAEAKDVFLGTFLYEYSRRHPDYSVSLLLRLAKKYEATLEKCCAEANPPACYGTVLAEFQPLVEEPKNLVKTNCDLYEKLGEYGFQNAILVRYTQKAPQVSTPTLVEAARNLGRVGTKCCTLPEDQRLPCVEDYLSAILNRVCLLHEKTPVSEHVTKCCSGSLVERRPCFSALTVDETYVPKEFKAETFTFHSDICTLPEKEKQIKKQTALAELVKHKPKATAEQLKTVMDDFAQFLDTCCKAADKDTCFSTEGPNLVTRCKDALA

mouse serum albumin [3] = molecular target: T1, mouse serum albumin; assay: ELISA, MSA coated at 2 ug/ml, nanobody titrated, anti-cMyc-HRP detection
Protocol: After washing wells with PBS/0.1% Tween-20, wells were blocked by incubating with PBS/1% bovine serum albumin (BSA) for 1 h at 37° C. […] After three washes with PBS/0.1% Tween-20, bound proteins were probed using polyclonal peroxidase-labelled anti-cMyc antibodies (1:5,000 dilution), and detected via hydrolysis of 3,3′,5,5′-tetramethylbenzidine.

binding to the control channel as percent of binding to OptiAlb-12-coated channels [1]: < 3
binding to the control channel as percent of binding to OptiAlb-12-coated channels (mouse serum albumin [2]): < 3
Molecule: non-relevant single-domain antibody (VHH)

binding result (mouse serum albumin [3]): binds
B1: OptiAlb-11 (VHH)
VHH: EVQLVESGGGLVQPGNSLRLSCAASGFTFSSFGMSWVRQAPGKGPEWVSSISGSGHDTLYADSVKGRFTISRDNAKTTLYLQMNSLRPEDTAVYYCTIGGSLTRSSQGTLVTVSS
notes: not shown: C-terminal histidine- and cMyc-tag from the pHEN6 plasmid
